Measured values as given in paper PMC3342439 (Journal of the American Chemical Society, 2012).
Changes are numbered by the printed parent chain.

What was measured:
Test in all cases: BLI
[1] = target: T1, Germicidin synthase (Gcs) R280A (Streptomyces coelicolor, UniProt Q9K464 1-389, R280A)
T1 sequence (looked up): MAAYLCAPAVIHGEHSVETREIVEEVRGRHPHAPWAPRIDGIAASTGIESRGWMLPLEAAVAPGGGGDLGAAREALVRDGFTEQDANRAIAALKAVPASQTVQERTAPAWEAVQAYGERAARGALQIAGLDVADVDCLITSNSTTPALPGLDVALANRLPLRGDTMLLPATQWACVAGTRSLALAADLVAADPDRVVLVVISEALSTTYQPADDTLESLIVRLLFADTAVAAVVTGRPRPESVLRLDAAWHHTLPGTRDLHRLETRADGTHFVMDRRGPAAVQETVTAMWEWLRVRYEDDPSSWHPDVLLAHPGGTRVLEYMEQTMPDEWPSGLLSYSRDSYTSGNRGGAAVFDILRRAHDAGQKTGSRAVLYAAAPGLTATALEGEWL

[2] = target: T2, Germicidin synthase (Gcs), wild type (Streptomyces coelicolor, UniProt Q9K464 1-389)
T2 sequence (looked up): T1 sequence (looked up) with A280R

[3] = target: T3, Germicidin synthase (Gcs) R276A (Streptomyces coelicolor, UniProt Q9K464 1-389, R276A)
T3 sequence (looked up): T1 sequence (looked up) with R276A, A280R

[4] = target: T4, Germicidin synthase (Gcs) R276/317A double mutant (Streptomyces coelicolor, UniProt Q9K464 1-389, R276/317A | R276/317A)
T4 sequence (looked up): T1 sequence (looked up) with R276A, A280R, R317A

[5] = target: T5, Germicidin synthase (Gcs) R317A (Streptomyces coelicolor, UniProt Q9K464 1-389, R317A)
T5 sequence (looked up): T1 sequence (looked up) with A280R, R317A

[6] = target: T6, Germicidin synthase (Gcs) R277A (Streptomyces coelicolor, UniProt Q9K464 1-389, R277A)
T6 sequence (looked up): T1 sequence (looked up) with R277A, A280R

- Kd [1]: 184 nM
- koff [1]: 0.000122 s⁻¹
- kon [1]: 769 M⁻¹ s⁻¹
- Kd [2]: 225 nM
- koff [2]: 0.00022 s⁻¹
- kon [2]: 1190 M⁻¹ s⁻¹
- Kd [3]: 185 nM
- koff [3]: 0.000253 s⁻¹
- kon [3]: 628 M⁻¹ s⁻¹
- Kd [4]: 192 nM
- koff [4]: 0.00017 s⁻¹
- kon [4]: 892 M⁻¹ s⁻¹
- Kd [5]: 161 nM
- koff [5]: 0.000407 s⁻¹
- kon [5]: 1810 M⁻¹ s⁻¹
- Kd [6]: 403 nM
- koff [6]: 0.000128 s⁻¹
- kon [6]: 695 M⁻¹ s⁻¹
B1: Acyl carrier protein AcpP (Sco2389), biotinylated (natural protein, Streptomyces coelicolor, UniProt P72393 1-82, looked up)
chain: MAATQEEIVAGLAEIVNEIAGIPVEDVKLDKSFTDDLDVDSLSMVEVVVAAEERFDVKIPDDDVKNLKTVGDATKYILDHQA
modifications: biotin (EZ-Link NHS-LC-LC-biotin, 5:1 molar ratio of biotin to protein)
